Data on five molecules can be found in patent US20100310635A1, “Compositions and Methods for Regulating T-Cell Activity” (priority 2007, published 2010).

The test system of assay [1] is CD4+CD25− Teff cell proliferation. Description: Suppression assay: suppression of Teff cell proliferation by transduced CD4+ cells expressing Foxp3 forms. The format is cell-based, mouse. As to conditions: retrovirally transduced CD4+ cells expressing the Foxp3 form, co-cultured with CFSE-labeled CD4+CD25− T cells, 72 hr. On the procedure:
Suppression assays—CD4+CD25+ (T-reg) and CD4+CD25− (T-eff) T cell and APC are isolated with magnetic beads following the manufacturer's instructions (Miltenyi). In some cases, 5×10^4 CD4+CD25− T cells were labeled with CFSE and stimulated with CD3 mAb (1 μg/ml) in the presence of irradiated syngeneic APC and varying ratios of activated CD4+ cells that had been transduced with different Foxp3 constructs. […] After 72 hours culture, cells were harvested and CD4+CD25− T cell proliferation was quantified by flow cytometry (Cyan) based on carboxylfluorescein diacetate succininyl ester (CFSE) profile of dividing effector T cells at 72 hr. Absolute numbers of effector T cells were determined by adding equal numbers of Dynabeads to each sample, and during FACS analysis gates were drawn on Dynabeads and collection time was based on set number of bead events for each sample. […]
WT Foxp3 and engineered Foxp3 mutants (N-terminal cleaved, C-terminal cleaved and N -plus C-terminal-cleaved (double-cleaved)) were retrovirally expressed in CD4+ cells and the ability of the transduced cells to suppress Teff cell proliferation was measured.

The next assay has as its system RAG−/− (C57BL/6) mice. Description: Adoptive transfer model of IBD. The following applies: for weight loss: 1×10^5 transduced Thy1.1+CD4+ cells plus 1×10^6 CD4+CD25− Teff cells i.p., weights monitored for 45 days; for histology of duodenal sections: duodenal samples collected at day 45, H&E. It is filed as in vivo, mouse. The source says: Adoptive transfer model of IBD—CD4+CD25− T cells were isolated from mesenteric lymph nodes using magnetic beads (Miltenyi) to >95% purity (by flow cytometry). CD4+CD25− T cells (1×10^6 cells) were co-injected i.p. into RAG1−/− (C57BL/6) mice along with Thy1.1+CD4+CD25− cells transduced with WT or mutated Foxp3 ([…]). Mice were monitored biweekly for clinical evidence of disease, including weight loss and stool consistency. RAG1−/− mice on the C57BL/6 background were purchased from Taconic Laboratory. Mice were housed in specific pathogen-free conditions, and used for studies approved by the institutional animal care and use committee of the Children's Hospital of Philadelphia.
Pathology—Gut samples were paraffin embedded and stained by H&E, or snap-frozen and stained by immunoperoxidase using mAbs to Foxp3 and T cell subsets (73).
To test the effects of the different Foxp3 mutants in vivo, RAG−/− (C57BL/6) mice were injected with 1×10^5 transduced Thy1.1+CD4+ cells expressing either WT-Foxp3 or a mutant Foxp3 (RKKR• (SEQ ID NO: 179), QNKR• (SEQ ID NO: 180), QNKR-- (SEQ ID NO: 180)) or empty vector (control), plus 1×10^6 CD4+CD25− Teff cells. Additional mice received CD4+CD25− Teff cells alone. The weights of the animals in each group were monitored weekly for 45 days.

Substitutions are numbered along the chain they refer to. Entries after “also recorded” stand apart in the source; their conditions may differ.

B1: double-cleaved Foxp3: engineered Foxp3 lacking N-terminal 51-aa and C-terminal tail (366-aa) (protein)
chain: SGAHTSSSLNPLPPSQLQLPTVPLVMVAPSGARLGPSPHLQALLQDRPHFMHQLSTVDAHAQTPVLQVRPLDNPAMISLPPPSAATGVFSLKARPGLPPGINVASLEWVSREPALLCTFPRSGTPRKDSNLLAAPQGSYPLLANGVCKWPGCEKVFEEPEEFLKHCQADHLLDEKGKAQCLLQREVVQSLEQQLELEKEKLGAMQAHLAGKMALAKAPSVASMDKSSCCIVATSTQGSVLPAWSAPREAPDGGLFAVRRHLWGSHGNSSFPEFFHNMDYFKYHNMRPPFTYATLIRWAILEAPERQRTLNEIYHWFTRMFAYFRNHPATWKNAIRHNLSLHKCFVRVESEKGAVWTVDEFEFRKKR
Turning to B1, the “suppression of Teff cell proliferation” value in assay [1] was “suppressed Teff cell proliferation stronger than both WTFoxp3 and N-terminal-cleaved Foxp3”.

B2: C-cleaved PNNW mutant: short 417-aa Foxp3 in which the last four amino acids RKKR are replaced with PNNW (protein, UniProt Q99JB6 1-417, looked up, variant R414P K415N K416N R417W)
chain: MPNPRPAKPMAPSLALGPSPGVLPSWKTAPKGSELLGTRGSGGPFQGRDLRSGAHTSSSLNPLPPSQLQLPTVPLVMVAPSGARLGPSPHLQALLQDRPHFMHQLSTVDAHAQTPVLQVRPLDNPAMISLPPPSAATGVFSLKARPGLPPGINVASLEWVSREPALLCTFPRSGTPRKDSNLLAAPQGSYPLLANGVCKWPGCEKVFEEPEEFLKHCQADHLLDEKGKAQCLLQREVVQSLEQQLELEKEKLGAMQAHLAGKMALAKAPSVASMDKSSCCIVATSTQGSVLPAWSAPREAPDGGLFAVRRHLWGSHGNSSFPEFFHNMDYFKYHNMRPPFTYATLIRWAILEAPERQRTLNEIYHWFTRMFAYFRNHPATWKNAIRHNLSLHKCFVRVESEKGAVWTVDEFEFPNNW
Regarding B2, in assay [1], the “suppression of Teff cell proliferation” value is listed as “loss in the suppression ability”.

B3: QNKR•: short 417-aa Foxp3 mutant without C-terminal tail, terminating with QNKR (protein, UniProt Q99JB6 1-417, looked up, variant R414Q K415N)
chain: B2 chain with P414Q, N416K, W417R
For the molecule B3, in the assay with RAG−/− (C57BL/6) mice, the weight loss entry is given as “negligible weight loss; also recorded: significantly more effective in controlling weight loss”; the “histology of duodenal sections” value is “minor mononuclear cell infiltration and edema”.

B4: WT-Foxp3: wild-type mouse Foxp3, 429-aa, retrovirally expressed in CD4+ T cells (protein)
chain: MPNPRPAKPMAPSLALGPSPGVLPSWKTAPKGSELLGTRGSGGPFQGRDLRSGAHTSSSLNPLPPSQLQLPTVPLVMVAPSGARLGPSPHLQALLQDRPHFMHQLSTVDAHAQTPVLQVRPLDNPAMISLPPPSAATGVFSLKARPGLPPGINVASLEWVSREPALLCTFPRSGTPRKDSNLLAAPQGSYPLLANGVCKWPGCEKVFEEPEEFLKHCQADHLLDEKGKAQCLLQREVVQSLEQQLELEKEKLGAMQAHLAGKMALAKAPSVASMDKSSCCIVATSTQGSVLPAWSAPREAPDGGLFAVRRHLWGSHGNSSFPEFFHNMDYFKYHNMRPPFTYATLIRWAILEAPERQRTLNEIYHWFTRMFAYFRNHPATWKNAIRHNLSLHKCFVRVESEKGAVWTVDEFEFRKKRSQRPNKCSNPCP
With B4, the survival entry with RAG−/− (C57BL/6) mice (1×10^5 transduced CD4+ cells plus 1×10^6 CD4+CD25− Teff cells, 45 days) was “survived”. In addition, in the assay on RAG−/− (C57BL/6) mice, the weight loss result is reported as “minor weight loss; also recorded: benefit”; the “histology of duodenal sections” value is “mild cell mononuclear cell infiltration and edema within villi; also recorded: mild mononuclear cell recruitment and villous edema”.

B5: QNKR--: 429-aa Foxp3 with RKKR replaced by QNKR, intact C-terminal tail resistant to proteolytic cleavage (protein, UniProt Q99JB6 1-429, looked up, variant R414Q K415N)
Forkhead box protein P3: B4 chain with R414Q, K415N
Regarding B5, in the assay on RAG−/− (C57BL/6) mice, the weight loss entry was “did significantly worse” and the “histology of duodenal sections” value is listed as “marked mononuclear cell infiltration of villous processes; also recorded: extensive mononuclear cell recruitment”.
